Square brackets hold non-standard residues; d marks the D form. Side chains are listed from the residue outwards. Ends that are not written are not given here. Phe(2-F) = N[C@@H](Cc1ccccc1F)C(=O)O; NMeY = CN[C@@H](Cc1ccc(O)cc1)C(=O)O; αMeF = C[C@](N)(Cc1ccccc1)C(=O)O; Iva = CC[C@](C)(N)C(=O)O; Oda = not defined here; Aib = CC(C)(N)C(=O)O
T1: human NPY2R (human, UniProt P49146 1-381)
T1 sequence (looked up): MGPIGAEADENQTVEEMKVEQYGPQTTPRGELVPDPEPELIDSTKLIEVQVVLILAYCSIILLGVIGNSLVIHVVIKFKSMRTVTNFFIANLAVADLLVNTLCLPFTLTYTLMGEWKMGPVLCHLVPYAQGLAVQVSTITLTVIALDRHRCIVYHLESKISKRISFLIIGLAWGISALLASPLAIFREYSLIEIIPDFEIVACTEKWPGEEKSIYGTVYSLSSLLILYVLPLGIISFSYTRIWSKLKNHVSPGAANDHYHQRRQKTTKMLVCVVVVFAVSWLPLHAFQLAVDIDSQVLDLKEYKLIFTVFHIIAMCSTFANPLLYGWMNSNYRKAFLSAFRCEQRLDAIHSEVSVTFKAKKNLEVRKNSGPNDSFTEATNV

T2: human GIPR (human, UniProt P48546 22-466)
T2 sequence (looked up): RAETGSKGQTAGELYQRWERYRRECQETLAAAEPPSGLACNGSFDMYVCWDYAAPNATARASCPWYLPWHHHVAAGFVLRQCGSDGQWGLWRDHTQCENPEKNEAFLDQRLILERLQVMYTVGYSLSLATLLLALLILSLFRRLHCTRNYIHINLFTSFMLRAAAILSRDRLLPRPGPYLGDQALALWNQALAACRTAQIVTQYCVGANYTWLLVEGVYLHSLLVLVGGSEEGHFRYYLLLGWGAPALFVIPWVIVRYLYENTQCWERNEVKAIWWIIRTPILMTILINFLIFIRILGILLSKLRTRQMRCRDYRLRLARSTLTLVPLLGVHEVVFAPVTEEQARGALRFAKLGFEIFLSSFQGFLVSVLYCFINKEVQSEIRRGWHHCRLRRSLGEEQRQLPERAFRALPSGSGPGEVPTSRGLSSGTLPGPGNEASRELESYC


What was measured:
Test in all cases: cell-based or functional assay
[1] = molecular target: human GLP-1R (human, UniProt P43220 24-463)
[2] = molecular target: T1, human NPY2R
[3] = molecular target: T2, human GIPR

Row | Binder | Agonist activity (EC50), Cre-luc reporter assay [1] [nM] | Agonist activity (EC50), Cre-luc reporter assay [2] [nM] | Agonist activity (EC50), Cre-luc reporter assay [3] [nM]
1 | H-Y[Aib]EGT[αMeF]TSDK([Gly-Gly-Gly-Gly-Pal])AI[Aib]LEKQRQ[Iva]EFVRHLLNK[Aib]TRQRY-NH2 | 0.045 | 0.023 | 0.042
2 | H-Y[Aib]EGT[αMeF]TSDK([Gly-Gly-Gly-Gly-Oda])[Aib]I[Aib]LDKQRQ[Iva]EFVRHLLNK[Aib]TRQR[Phe(2-F)]-NH2 (reading uncertain; also: printed as H-Tyr-Aib-Glu-Gly-Thr-αMePhe-Thr-Ser-Asp-Lys(-Gly-Gly-Gly-Gly-Oda)-Aib-Ile-Aib-Leu-Asp-Lys-Gln-Arg-Gln-Iva-Glu-Phe-Val-Arg-His-Leu-Leu-Asn-Lys-Aib-Thr-Arg-Gln-Arg-Phe(2-F)-NH2) | 0.61 | 1.3 | 0.41
3 | H-Y[Aib]EGT[αMeF]TSDK([Gly-Gly-Gly-Gly-Pal])[Aib]I[Aib]LDKQAQ[Iva]EFVRHLLNK[Aib]TRQR[Phe(2-F)]-NH2 | 0.014 | 0.031 | 0.035
4 | H-Y[Aib]EGT[αMeF]TSDK([Gly-Gly-Gly-Gly-Pal])SI[Aib]LEKQRQ[Iva]EFVRHLLNK[Aib]TRQRY-NH2 | 0.053 | 0.041 | 0.041
5 | H-Y[Aib]EGT[αMeF]TSDK([Gly-Gly-Gly-Gly-Oda])AI[Aib]LEKQRQ[Iva]EFVRHLLNK[Aib]TRQRY-NH2 (reading uncertain; also: printed as H-Tyr-Aib-Glu-Gly-Thr-αMePhe-Thr-Ser-Asp-Lys(-Gly-Gly-Gly-Gly-Oda)-Ala-Ile-Aib-Leu-Glu-Lys-Gln-Arg-Gln-Iva-Glu-Phe-Val-Arg-His-Leu-Leu-Asn-Lys-Aib-Thr-Arg-Gln-Arg-Tyr-NH2) | 0.53 | 1.1 | 0.36

The next lines start with the values.

Row | Agonist activity (EC50), Cre-luc reporter assay [1] [nM] | Agonist activity (EC50), Cre-luc reporter assay [2] [nM] | Agonist activity (EC50), Cre-luc reporter assay [3] [nM] | Binder
6 | 1.1 | 1.5 | 0.53 | Me-Y[Aib]EGT[αMeF]TSDK([Gly-Gly-Gly-Gly-Oda])[Aib]I[Aib]LEKQRQ[Iva]EFVRHLLNK[Aib]TRQRY-NH2 (reading uncertain; also: printed as Me-Tyr-Aib-Glu-Gly-Thr-αMePhe-Thr-Ser-Asp-Lys(-Gly-Gly-Gly-Gly-Oda)-Aib-Ile-Aib-Leu-Glu-Lys-Gln-Arg-Gln-Iva-Glu-Phe-Val-Arg-His-Leu-Leu-Asn-Lys-Aib-Thr-Arg-Gln-Arg-Tyr-NH2)
7 | 2.3 | 1.7 | 0.4 | [NMeY][Aib]EGT[αMeF]TSDK([Gly-Gly-Gly-Gly-Oda])AI[Aib]LEKQRQ[Iva]EFVRHLLNK[Aib]TRQRY-NH2 (reading uncertain; also: printed as Me-Tyr-Aib-Glu-Gly-Thr-αMePhe-Thr-Ser-Asp-Lys(-Gly-Gly-Gly-Gly-Oda)-Ala-Ile-Aib-Leu-Glu-Lys-Gln-Arg-Gln-Iva-Glu-Phe-Val-Arg-His-Leu-Leu-Asn-Lys-Aib-Thr-Arg-Gln-Arg-Tyr-NH2)
8 | 0.036 | 0.026 | 0.04 | Me-Y[Aib]EGT[αMeF]TSDK([Gly-Gly-Gly-Gly-Pal])AI[Aib]LEKQRQ[Iva]EFVRHLLNK[Aib]TRQRY-NH2

— patent US20190202883A1 (Takeda / Millennium, published 2019)
